From patent US20110250133A1, “GASTRIN […] PEPTIDE COMPOUNDS” (priority 2003, published 2011)

Legend:
[1] = target: gastrin releasing peptide receptor (GRP-R) (human) (UniProt P30550); experiment: saturation binding on PC-3 cells
mouse GRP-R (mouse) = mouse GRP-R (mouse) (UniProt P21729); experiment: receptor autoradiography with 177Lu-L70
[2] = target: human neuromedin-B preferring receptor (NMB-R) (human) (UniProt P28336); experiment: receptor autoradiography with 177Lu-L70
[3] = target: human bombesin receptor subtype 3 (BB3-R) (human) (UniProt P32247); experiment: receptor autoradiography with 177Lu-L70
[4] = target: gastrin releasing peptide receptor (GRP-R) (human) (UniProt P30550); experiment: receptor autoradiography with 177Lu-L70
[5] = breast cancer patients; cited from earlier work

gastrin releasing peptide receptor (GRP-R) (human), sequence (P30550 whole entry): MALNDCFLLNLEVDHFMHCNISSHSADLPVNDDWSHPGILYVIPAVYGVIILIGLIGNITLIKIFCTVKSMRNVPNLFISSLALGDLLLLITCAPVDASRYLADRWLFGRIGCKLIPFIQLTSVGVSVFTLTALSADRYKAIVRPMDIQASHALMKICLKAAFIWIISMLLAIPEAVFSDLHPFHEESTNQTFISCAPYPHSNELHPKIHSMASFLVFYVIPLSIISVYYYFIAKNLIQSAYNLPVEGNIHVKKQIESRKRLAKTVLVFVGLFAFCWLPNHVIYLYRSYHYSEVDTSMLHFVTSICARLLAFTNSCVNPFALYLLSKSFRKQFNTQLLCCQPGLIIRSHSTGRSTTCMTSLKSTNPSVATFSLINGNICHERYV
mouse GRP-R (mouse), sequence (P21729 whole entry): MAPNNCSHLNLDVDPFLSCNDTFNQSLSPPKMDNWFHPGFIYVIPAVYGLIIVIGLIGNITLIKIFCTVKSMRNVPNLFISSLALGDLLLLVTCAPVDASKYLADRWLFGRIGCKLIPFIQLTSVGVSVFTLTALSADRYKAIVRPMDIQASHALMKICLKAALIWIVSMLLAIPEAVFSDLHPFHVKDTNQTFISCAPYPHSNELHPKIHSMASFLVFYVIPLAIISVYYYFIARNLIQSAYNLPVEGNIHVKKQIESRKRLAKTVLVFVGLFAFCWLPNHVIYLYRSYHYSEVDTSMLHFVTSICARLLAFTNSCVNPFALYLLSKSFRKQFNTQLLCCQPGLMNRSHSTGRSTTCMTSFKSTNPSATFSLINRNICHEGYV
human neuromedin-B preferring receptor (NMB-R) (human), sequence (P28336 whole entry): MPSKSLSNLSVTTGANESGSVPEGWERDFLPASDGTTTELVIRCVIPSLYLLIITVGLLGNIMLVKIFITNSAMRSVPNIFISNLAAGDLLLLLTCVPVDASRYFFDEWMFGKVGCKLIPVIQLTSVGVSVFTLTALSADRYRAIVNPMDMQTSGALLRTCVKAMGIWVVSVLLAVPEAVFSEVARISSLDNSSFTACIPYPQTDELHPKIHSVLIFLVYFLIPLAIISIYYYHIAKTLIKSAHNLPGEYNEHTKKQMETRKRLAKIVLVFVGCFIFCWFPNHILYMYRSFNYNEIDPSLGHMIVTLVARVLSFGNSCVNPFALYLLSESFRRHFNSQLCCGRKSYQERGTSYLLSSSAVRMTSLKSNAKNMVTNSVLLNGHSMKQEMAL
human bombesin receptor subtype 3 (BB3-R) (human), sequence (P32247 whole entry): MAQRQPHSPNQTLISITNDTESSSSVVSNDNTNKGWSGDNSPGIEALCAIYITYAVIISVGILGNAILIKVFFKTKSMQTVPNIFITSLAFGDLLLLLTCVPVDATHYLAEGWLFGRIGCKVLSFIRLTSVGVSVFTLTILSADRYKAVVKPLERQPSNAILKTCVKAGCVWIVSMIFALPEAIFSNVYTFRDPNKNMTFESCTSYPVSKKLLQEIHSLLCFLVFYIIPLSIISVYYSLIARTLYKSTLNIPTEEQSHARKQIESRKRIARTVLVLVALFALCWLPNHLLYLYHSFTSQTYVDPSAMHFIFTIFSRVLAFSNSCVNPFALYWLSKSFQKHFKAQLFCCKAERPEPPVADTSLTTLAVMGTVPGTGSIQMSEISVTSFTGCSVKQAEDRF

Row | Binding capacity (Bmax) (fmoles/1 × 10^6 cells) [1] | Kd [1] [nM] | Receptors/cell (receptors/cell) [1] | tissues labelled / tissues tested (of 4 (Mouse pancreas, acini)) (mouse GRP-R (mouse)) | tissues labelled / tissues tested (of 4 (Prostate Ca)) [4] | tissues labelled / tissues tested (of 5 (Chronic pancreatitis, acini)) [4] | tissues labelled / tissues tested (of 6 (Renal Ca)) [4] | tissues labelled / tissues tested (of 7 (Colon Ca, smooth muscle)) [4] | tissues labelled / tissues tested (of 7 (Colon Ca, tumor)) [4] | tissues labelled / tissues tested (of 7 (Human pancreas, acini)) [4] | tissues labelled / tissues tested (of 8 (Mammary Ca)) [4] | Substance | tissues labelled / tissues tested (of 8 (Ileal carcinoid)) [2] | tissues labelled / tissues tested (of 6 (Bronchial carcinoid)) [3] | tissues labelled / tissues tested (of 6 (Bronchial carcinoid)) [4] | overall response [5] [%]
1 | 408 | 0.44 | 245000 | 4 | 4 | 5 | 5 | 7 | 3 | 1 | 8 | 177Lu-L70 (peptide) | 8 | 0 | 2 | 
2 |  |  |  |  |  |  |  |  |  |  |  | Herceptin® |  |  |  | 9
